Assay [1] deals with T1, recombinant extracellular domain of CD38 (human, UniProt P28907 43-300).
T1 construct: also called CD38 extracellular domain; AtaGenix ATMP00140HU
In words: Biacore SPR.

Assay [2] deals with T2, CD38 on CD38-positive cells (human, UniProt P28907 1-300). Put plainly: cell-based or functional assay.
In assay [3] the target is T1, recombinant extracellular domain of CD38. Put plainly: Biacore SPR. This is another data set of the same source. A general note: In SPR one partner is held on a chip, and binding of the other changes the refractive index at the surface.
For assay [4], the target named is T2, CD38 on CD38-positive cells. In words: flow cytometry on CD38-positive H211 cells. A general note: A flow cytometer gives signals particle by particle.
Assay [5] shares this target. Put plainly: flow cytometry on SU-DHL-6 cells (B cell lymphoma), MFI against antibody concentration [table, row SU-DHL-6].
The target of assay [6] is FcγRIIIa (V176) (UniProt P08637 17-208, limits assumed). In words: kinetics, FcγRIIIa as ligand, antibody as analyte.
FcγRIIIa (V176), sequence (P08637 17-208 F176V limits assumed): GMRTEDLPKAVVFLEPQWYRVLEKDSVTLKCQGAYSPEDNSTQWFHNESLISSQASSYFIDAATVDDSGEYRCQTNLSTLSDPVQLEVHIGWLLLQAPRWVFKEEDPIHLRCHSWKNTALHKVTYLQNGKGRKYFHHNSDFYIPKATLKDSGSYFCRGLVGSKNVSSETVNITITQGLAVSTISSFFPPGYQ
Assay [7] concerns the target FcγRIIIa(F176) (UniProt P08637 17-208, limits assumed). In words: kinetics, FcγRIIIa as ligand, antibody as analyte.
In assay [8] the target is T3, rhesus macaque erythrocytes (rhesus macaque).
T3 chain: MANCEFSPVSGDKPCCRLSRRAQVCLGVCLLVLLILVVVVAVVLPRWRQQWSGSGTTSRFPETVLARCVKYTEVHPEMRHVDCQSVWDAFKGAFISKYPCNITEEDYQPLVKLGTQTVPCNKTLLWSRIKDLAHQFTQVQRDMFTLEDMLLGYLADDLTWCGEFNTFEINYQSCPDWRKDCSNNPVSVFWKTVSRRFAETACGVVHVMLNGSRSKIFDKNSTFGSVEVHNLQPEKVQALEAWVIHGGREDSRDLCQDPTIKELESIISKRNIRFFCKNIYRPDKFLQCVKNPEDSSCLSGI
In words: flow cytometry on rhesus macaque erythrocytes.

For assay [9], the target named is T2, CD38 on CD38-positive cells. In words: flow cytometry on NCI-H211 cells (small cell lung cancer), MFI against antibody concentration [table, row NCI-H211].

Like-named read-outs stand apart in the source and are kept apart here.

By Kd is commonly meant the equilibrium constant for the complex coming apart. One may read the koff as the rate constant with which the complex falls apart. One may read the kon as the rate constant with which the complex forms. For orientation: EC50 means the concentration that produces a half-maximal response. Read a low EC50 as an effect from little substance.

FcγRIIIa(F176), sequence (P08637 17-208 limits assumed): as the sequence (P08637 17-208 F176V limits assumed) above, with V160F counted along it

B1: Daratumumab (antibody, V domains shown)
VH: EVQLLESGGGLVQPGGSLRLSCAVSGFTFNSFAMSWVRQAPGKGLEWVSAISGSGGGTYYADSVKGRFTISRDNSKNTLYLQMNSLRAEDTAVYFCAKDKILWFGEPVFDYWGQGTLVTVSS
VL: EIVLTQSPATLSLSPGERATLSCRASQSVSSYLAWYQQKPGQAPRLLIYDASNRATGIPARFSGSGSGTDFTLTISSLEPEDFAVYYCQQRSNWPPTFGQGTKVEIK
Regarding B1, in assay [1], the Kd worked out at 1.96 nM, the koff is 0.000355 s⁻¹ and the kon turned out to be 181000 M⁻¹ s⁻¹. In assay [2], the “Rate of apoptosis (%), Daudi cells” value is 10.6%; the “Rate of apoptosis (%), Raji cells” value amounted to 5.73%; the “Rate of apoptosis (%), Romas cells” value is 9.78%; the “Rate of apoptosis (%), SU-DHL-6 cells” value was 10.4%. In addition, in assay [3], the equilibrium dissociation constant (Kd) was 12.2 nM, the koff was found to be 0.00363 s⁻¹ and the kon turned out to be 297000 M⁻¹ s⁻¹. In addition, the midpoint of the response in [4], the EC50, lay at 1.94 µg/mL. In [5], this molecule returned an EC50 of 0.548 µg/mL.

B2: FTL004-1 (antibody, human IgG1, kappa)
heavy: not shown
light: DIVLTQSPASLAVSPGQRATITCRASESVDNFGITFMHWYQQKPGQPPKLLIYRASNLESGVPARFSGSGSRTDFTLTINPVEANDTANYYCQQSSKDPRTFGQGTKLEIKRTVAAPSVFIFPPSDEQLKSGTASVVCLLNNFYPREAKVQWKVDNALQSGNSQESVTEQDSKDSTYSLSSTLTLSKADYEKHKVYACEVTHQGLSSPVTKSFNRGEC
notes: copies: 2 + 2
Regarding B2, in [6], binding was put at a Kd of 29.5 nM, the koff amounted to 0.0229 s⁻¹ and the kon turned out to be 778000 M⁻¹ s⁻¹. Further, the Kd in assay [7] worked out at 19.5 nM. In assay [2], the “Rate of apoptosis (%), Daudi cells” value was 40.9%; the “Rate of apoptosis (%), Raji cells” value was found to be 7.14%; the “Rate of apoptosis (%), Romas cells” value stood at 64.2%; the “Rate of apoptosis (%), SU-DHL-6 cells” value stood at 21.2%. Besides, in [8], the EC50 fell in the range of 2 to 5 µg/mL. Also, in [9], the EC50 came out at 0.555 µg/mL.

Source of the values: US20240400711A1 (SOUND BIOPHARMACEUTICALS, published 2024).
